Legend:
[1] = biological target: T1, soluble DR5-Fc fusion protein (UniProt O14763 56-182, limits assumed, biotin-labeled (sites not given)); experiment: BLI (ForteBio Octet), biotin-labeled DR5-Fc on streptavidin sensors
T1 construct: It was biotinylated and captured on streptavidin biosensors; also called DR5 (TRAIL-R2); biotinylated DR5-Fc; not shown: Fc part
From the text: (§1) Figure 7: FIG. 7 is the kinetic studies of TRAIL-Trimer, TRAIL-Fc and native TRAIL binding to the soluble DR5-Fc fusion protein assessed by biolayer interferometry measurements. The Super Streptavidin biosensor tips of the ForteBio Octet RED 96 were coated with biotinylated DR5-Fc. The biosensor tips were dipped in increasing concentrations gradient of TRAIL-Trimer, TRAIL-Fc and native TRAIL to measure their binding to DR5-Fc and subsequently moved to wells containing buffer (PBS) to measure dissociation rates. The dissociation constant Kd was shown for each graph. Figure 7: Figure 7:
(§2) Comparison of TRAIL-Trimer, TRAIL-Fc and Native TRAIL in Receptor Binding Avidity In Vitro DR5 (TRAIL-R2) is one of TRAIL's functional receptors which initiates extrinsic apoptosis pathway signaling upon activation; thus, we examined the binding kinetic profile of TRAIL-Trimer, TRAIL-Fc and native TRAIL to a soluble DR5-Fc fusion protein. With Fortebio biolayer interferometry measurement, the biotin-labeled DR5-Fc was first captured on Streptavidin (SA) sensors, and real-time binding curves were measured and plotted by applying the sensor in gradient concentrations (15.4 nM-123.5 nM) of the three analytes (FIG. 7).

[2] = biological target: T1, soluble DR5-Fc fusion protein; experiment: biolayer interferometry (ForteBio Octet RED 96), biotinylated DR5-Fc captured on streptavidin biosensor tips, TRAIL-Trimer in solution at graded concentrations
From the text: as §1, §2

T1 sequence (O14763 56-182 limits assumed): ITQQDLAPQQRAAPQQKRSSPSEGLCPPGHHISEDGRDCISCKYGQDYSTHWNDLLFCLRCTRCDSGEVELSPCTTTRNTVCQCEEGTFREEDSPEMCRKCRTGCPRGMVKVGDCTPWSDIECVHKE

B1: TRAIL-Trimer (mature human TRAIL fused to the C-propeptide of human alpha1(I) collagen, Trimer-Tag, with a mutated BMP-1 site) (ligand)
chain: VRERGPQRVAAHITGTRGRSNTLSSPNSKNEKALGRKINSWESSRSGHSFLSNLHLRNGELVIHEKGFYYIYSQTYFRFQEEIKENTKNDKQMVQYIYKYTSYPDPILLMKSARNSCWSKDAEYGLYSIYQGGIFELKENDRIFVSVTNEHLIDMDHEASFFGAFLVGGSNGLPGPIGPPGPRGRTGDAGPVGPPGPPGPPGPPGPPSAGFDFSFLPQPPQEKAHDGGRYYRANDANVVRDRDLEVDTTLKSLSQQIENIRSPEGSRKNPARTCRDLKMCHSDWKSGEYWIDPNQGCNLDAIKVFCNMETGETCVYPTQPSVAQKNWYISKNPKDKRHVWFGESMTDGFQFEYGGQGSDPADVAIQLTFLRLMSTEASQNITYHCKNSVAYMDQQTGNLKKALLLKGSNEIEIRAEGNSRFTYSVTVDGCTSHTGAWGKTVIEYKTTKSSRLPIIDVAPLDVGAPDQEFGFDVGPVCFL
notes: also called SCB-313; disulfide bond-linked trimeric TRAIL fusion protein
koff [1]: < 1e-07 s⁻¹ | kon [1]: 81000 M⁻¹ s⁻¹ | Kd [2]: < 1 pM

— patent US12168686 (CLOVER BIOPHARMACEUTICALS, dated 2024)
